# Reference: patent US20100015126A1, “Methods of Binding of Cross-Beta Structures By Chaperones” (priority 2006, published 2010)
# Assays:
# [1] = target: Hypothetical protein/Heat shock 70 kDa protein 5 (glucose-regulated protein, 78 kDa = GRP78 = BiP = HSPA5), as identified in eluates (human) (UniProt P11021); assay: BiP-Sepharose pull-down, RA synovial fluid sample 1B, 1 M NaCl eluate, MS; BiP may stem from the column
# [2] = target: Heat shock 70 kDa protein 1L (human) (UniProt P34931); assay: BiP-Sepharose pull-down, RA synovial fluid sample 5B, 1 M NaCl eluate, MS; may be indirect
# [3] = target: 187 kDa protein/Complement component 3 (human) (UniProt P01024); assay: as above
# [4] = target: Serotransferrin precursor (human) (UniProt P02787); assay: as above
# [5] = target: Vitronectin precursor (Serum-spreading factor/S-protein) (human) (UniProt P04004); assay: as above
# [6] = target: fibronectin 1 isoform 4 preproprotein (human) (UniProt P02751); assay: as above
# [7] = target: 25 kDa protein/immunoglobulin lambda chain/rheumatoid factor G9 light chain (lambda V3)/IGLC1 protein (human) (UniProt P0CG04); assay: as above
# [8] = target: Histidine-rich glycoprotein precursor (human) (UniProt P04196); assay: as above
# [9] = target: Hypothetical protein/Heat shock 70 kDa protein 5 (glucose-regulated protein, 78 kDa = GRP78 = BiP = HSPA5), as identified in eluates (human) (UniProt P11021); assay: BiP-Sepharose pull-down, RA synovial fluid sample 3B, 1 M NaCl eluate, MS; BiP may stem from the column
# [10] = target: Ig heavy chain V-III region CAM (human) (UniProt P01768); assay: BiP-Sepharose pull-down, RA patient IV synovial fluid (B6), MS of urea eluate; may be indirect
# [11] = target: IGLC1 protein (immunoglobulin lambda C1)/immunoglobulin lambda chain/immunoglobulin C1 segment protein (fragment) (human) (UniProt P0CG04); assay: as above
# [12] = target: Immunoglobulin heavy constant mu (IPI00479708) (human) (UniProt P01871); assay: as above
# Immunoglobulin heavy constant mu (IPI00479708) (human), sequence (P01871 other isoform, or with tags, fused parts or gaps limits assumed): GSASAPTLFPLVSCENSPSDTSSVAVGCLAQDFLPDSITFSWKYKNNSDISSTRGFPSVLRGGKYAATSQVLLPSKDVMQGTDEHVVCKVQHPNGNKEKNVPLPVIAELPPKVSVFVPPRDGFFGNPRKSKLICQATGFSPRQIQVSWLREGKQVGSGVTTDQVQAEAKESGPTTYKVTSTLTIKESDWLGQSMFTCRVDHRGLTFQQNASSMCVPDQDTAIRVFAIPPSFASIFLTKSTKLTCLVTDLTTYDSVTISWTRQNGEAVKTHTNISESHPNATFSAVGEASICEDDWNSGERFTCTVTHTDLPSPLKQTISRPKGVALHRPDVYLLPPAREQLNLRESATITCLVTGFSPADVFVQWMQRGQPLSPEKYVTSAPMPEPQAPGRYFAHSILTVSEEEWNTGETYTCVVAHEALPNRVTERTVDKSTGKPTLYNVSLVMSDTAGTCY
# Hypothetical protein/Heat shock 70 kDa protein 5 (glucose-regulated protein, 78 kDa = GRP78 = BiP = HSPA5), as identified in eluates (human), sequence (P11021 19-654 limits assumed): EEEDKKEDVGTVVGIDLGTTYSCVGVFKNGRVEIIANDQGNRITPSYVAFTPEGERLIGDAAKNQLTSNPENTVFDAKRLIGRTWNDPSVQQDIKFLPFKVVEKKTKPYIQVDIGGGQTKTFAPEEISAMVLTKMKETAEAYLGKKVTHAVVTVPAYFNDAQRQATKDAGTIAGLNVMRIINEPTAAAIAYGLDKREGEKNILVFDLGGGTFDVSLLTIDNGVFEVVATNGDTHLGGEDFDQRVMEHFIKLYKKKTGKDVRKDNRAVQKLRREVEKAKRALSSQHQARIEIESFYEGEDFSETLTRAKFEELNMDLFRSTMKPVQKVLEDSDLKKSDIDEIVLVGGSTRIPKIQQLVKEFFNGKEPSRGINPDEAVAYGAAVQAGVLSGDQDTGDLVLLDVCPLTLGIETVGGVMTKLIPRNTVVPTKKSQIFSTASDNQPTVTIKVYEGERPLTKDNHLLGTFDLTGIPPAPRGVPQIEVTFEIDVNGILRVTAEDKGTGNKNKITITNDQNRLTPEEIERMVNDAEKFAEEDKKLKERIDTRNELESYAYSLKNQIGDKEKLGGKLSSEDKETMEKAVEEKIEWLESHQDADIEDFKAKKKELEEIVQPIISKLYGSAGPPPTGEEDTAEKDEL
# Histidine-rich glycoprotein precursor (human), sequence (P04196 19-525 limits assumed): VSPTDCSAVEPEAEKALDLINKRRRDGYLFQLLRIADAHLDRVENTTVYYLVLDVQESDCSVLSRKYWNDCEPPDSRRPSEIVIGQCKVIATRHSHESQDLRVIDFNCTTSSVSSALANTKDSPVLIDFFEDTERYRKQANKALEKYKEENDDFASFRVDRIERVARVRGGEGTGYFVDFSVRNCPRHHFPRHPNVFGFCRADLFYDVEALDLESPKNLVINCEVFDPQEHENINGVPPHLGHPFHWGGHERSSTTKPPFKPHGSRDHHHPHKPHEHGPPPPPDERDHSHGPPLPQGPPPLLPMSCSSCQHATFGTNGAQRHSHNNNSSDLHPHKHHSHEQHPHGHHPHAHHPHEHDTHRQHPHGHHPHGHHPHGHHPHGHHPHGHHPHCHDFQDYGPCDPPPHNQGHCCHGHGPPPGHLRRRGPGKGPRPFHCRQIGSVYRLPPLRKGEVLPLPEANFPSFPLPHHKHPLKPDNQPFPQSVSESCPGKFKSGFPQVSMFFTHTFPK
# Serotransferrin precursor (human), sequence (P02787 20-698 limits assumed): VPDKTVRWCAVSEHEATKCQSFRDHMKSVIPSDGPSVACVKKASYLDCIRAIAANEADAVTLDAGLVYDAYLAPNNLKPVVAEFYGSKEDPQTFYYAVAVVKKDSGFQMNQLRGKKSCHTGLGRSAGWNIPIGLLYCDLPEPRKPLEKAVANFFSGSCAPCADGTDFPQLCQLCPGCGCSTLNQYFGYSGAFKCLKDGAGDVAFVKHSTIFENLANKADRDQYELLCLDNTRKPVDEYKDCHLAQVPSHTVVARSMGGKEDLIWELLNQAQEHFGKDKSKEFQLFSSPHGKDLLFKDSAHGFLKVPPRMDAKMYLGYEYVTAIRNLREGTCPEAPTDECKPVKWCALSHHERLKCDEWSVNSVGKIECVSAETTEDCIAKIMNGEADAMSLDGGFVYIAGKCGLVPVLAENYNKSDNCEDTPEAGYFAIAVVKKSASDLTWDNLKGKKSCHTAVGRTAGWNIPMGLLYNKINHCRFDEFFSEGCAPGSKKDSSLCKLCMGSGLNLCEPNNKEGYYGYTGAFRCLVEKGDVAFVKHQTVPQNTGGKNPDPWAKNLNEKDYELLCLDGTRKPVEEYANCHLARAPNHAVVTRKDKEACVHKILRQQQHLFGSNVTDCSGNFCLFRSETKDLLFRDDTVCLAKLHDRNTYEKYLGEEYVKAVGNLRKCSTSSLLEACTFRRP
# Ig heavy chain V-III region CAM (human), sequence (P01768 20-117 limits assumed): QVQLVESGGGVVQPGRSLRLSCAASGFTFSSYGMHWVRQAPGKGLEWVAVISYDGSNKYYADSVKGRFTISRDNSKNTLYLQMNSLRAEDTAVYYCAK
# Heat shock 70 kDa protein 1L (human), sequence (P34931 whole entry): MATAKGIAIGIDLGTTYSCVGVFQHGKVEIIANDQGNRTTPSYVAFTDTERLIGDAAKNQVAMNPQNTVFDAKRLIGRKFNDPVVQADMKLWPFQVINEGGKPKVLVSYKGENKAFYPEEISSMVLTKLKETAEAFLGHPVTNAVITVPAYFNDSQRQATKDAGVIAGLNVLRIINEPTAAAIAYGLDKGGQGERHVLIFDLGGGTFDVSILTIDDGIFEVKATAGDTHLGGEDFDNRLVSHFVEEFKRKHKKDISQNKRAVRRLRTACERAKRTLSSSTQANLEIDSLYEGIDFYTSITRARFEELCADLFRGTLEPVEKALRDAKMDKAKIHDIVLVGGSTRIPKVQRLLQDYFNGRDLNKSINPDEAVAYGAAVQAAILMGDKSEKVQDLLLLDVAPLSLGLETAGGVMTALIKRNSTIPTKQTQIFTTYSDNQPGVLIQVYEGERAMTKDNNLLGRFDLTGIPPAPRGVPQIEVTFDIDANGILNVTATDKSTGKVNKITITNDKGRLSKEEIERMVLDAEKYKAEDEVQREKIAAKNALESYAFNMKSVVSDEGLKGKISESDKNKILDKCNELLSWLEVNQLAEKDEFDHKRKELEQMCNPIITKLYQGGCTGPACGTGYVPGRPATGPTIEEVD
# 187 kDa protein/Complement component 3 (human), sequence (P01024 23-1663 limits assumed): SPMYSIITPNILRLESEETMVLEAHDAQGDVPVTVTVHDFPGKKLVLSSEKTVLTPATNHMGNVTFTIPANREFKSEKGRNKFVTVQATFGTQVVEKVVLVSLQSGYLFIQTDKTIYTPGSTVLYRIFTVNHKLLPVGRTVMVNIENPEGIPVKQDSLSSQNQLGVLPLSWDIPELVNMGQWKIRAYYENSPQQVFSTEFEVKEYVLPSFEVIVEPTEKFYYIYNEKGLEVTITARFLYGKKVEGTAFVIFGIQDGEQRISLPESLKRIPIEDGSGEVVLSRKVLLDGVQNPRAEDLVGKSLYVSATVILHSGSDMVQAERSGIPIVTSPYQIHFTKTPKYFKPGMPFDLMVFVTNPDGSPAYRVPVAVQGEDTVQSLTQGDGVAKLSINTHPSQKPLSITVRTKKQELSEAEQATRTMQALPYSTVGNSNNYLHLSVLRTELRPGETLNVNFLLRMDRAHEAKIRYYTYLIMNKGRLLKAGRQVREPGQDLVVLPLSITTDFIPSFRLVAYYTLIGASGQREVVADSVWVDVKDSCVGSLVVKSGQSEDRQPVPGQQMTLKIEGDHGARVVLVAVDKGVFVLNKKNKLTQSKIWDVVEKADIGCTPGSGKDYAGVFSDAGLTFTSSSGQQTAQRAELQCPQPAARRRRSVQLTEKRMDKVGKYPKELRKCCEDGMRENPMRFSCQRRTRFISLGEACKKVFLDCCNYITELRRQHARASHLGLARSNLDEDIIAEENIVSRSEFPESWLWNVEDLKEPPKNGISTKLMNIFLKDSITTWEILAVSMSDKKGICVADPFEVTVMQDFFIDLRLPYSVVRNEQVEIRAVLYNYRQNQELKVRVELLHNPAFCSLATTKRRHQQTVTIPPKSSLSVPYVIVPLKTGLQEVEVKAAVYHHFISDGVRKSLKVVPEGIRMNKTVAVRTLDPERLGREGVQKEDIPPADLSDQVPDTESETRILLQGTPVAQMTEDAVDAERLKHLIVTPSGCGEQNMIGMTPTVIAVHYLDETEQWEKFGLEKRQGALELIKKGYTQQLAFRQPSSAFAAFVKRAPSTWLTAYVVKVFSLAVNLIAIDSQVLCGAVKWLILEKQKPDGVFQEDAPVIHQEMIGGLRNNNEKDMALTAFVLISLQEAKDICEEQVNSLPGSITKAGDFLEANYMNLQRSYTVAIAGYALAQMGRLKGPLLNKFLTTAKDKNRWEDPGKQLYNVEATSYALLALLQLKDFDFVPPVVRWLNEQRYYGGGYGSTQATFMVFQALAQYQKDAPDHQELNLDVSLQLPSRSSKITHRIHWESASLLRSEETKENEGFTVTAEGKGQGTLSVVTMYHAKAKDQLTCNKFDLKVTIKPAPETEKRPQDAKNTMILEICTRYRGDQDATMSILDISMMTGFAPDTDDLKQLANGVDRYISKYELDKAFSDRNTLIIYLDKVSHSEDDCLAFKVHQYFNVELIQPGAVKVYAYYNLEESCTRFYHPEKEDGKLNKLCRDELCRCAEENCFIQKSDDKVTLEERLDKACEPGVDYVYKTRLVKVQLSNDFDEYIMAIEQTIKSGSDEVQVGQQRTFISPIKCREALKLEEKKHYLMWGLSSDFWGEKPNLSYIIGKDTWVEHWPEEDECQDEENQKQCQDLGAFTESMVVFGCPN
# IGLC1 protein (immunoglobulin lambda C1)/immunoglobulin lambda chain/immunoglobulin C1 segment protein (fragment) (human), sequence (P0CG04 whole entry, the tested form may be a part): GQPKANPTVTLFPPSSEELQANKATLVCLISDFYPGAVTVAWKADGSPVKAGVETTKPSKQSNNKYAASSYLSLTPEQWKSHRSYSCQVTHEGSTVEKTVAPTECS
substance,measurement,setting,value
"recombinant human BiP with C-terminal linker, FLAG-tag and His-tag (BiP-FLAG-His) (from UniProt P11021 19-654)",# of unique peptides,[1],21 peptides
same,# of unique peptides,[2],1 peptides
same,# of unique peptides,[3],1 peptides
same,# of unique peptides,[4],1 peptides
same,# of unique peptides,[5],2 peptides
same,# of unique peptides,[6],2 peptides
same,# of unique peptides,[7],1 peptides
same,# of unique peptides,[8],1 peptides
same,# of unique peptides,[9],19 peptides
same,# of peptides,[10],2 peptides
same,# of peptides,[11],1 peptides
same,# of peptides,[12],1 peptides
